From PMC2841223 (Journal of structural biology, 2009)
Substitutions are numbered along the chain they refer to. Numbers in names are those of the source. Where two headings read alike, the source gives them in different places.

T1: ILK ankyrin repeat domain W110A (human, UniProt Q13418 1-174, W110A)
T1 sequence (looked up): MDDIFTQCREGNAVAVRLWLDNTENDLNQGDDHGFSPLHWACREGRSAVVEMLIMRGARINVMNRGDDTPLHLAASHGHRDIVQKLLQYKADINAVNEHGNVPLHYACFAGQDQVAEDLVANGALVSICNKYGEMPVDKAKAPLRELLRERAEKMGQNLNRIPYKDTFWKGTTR

B1: PINCH2 LIM1 domain (PINCH2 6-68), His tag removed (domain or fragment, human, UniProt Q7Z4I7-3 6-68, looked up)
chain: ANAVCQRCQARFSPAERIVNSNGELYHEHCFVCAQCFRPFPEGLFYEFEGRKYCEHDFQMLFA
B2: ILK ankyrin repeat domain (ILK 1-174, from thrombin-cleaved GST-ILK 1-192) (domain or fragment, human, UniProt Q13418 1-174, looked up)
chain: T1 sequence (looked up) with A110W
B3: His-tagged PINCH2 LIM1 R12A (domain or fragment, human, UniProt Q7Z4I7-3 6-68, looked up)
chain: B1 chain with R7A
B4: His-tagged PINCH2 LIM1 (PINCH2 6-68) (domain or fragment, human, UniProt Q7Z4I7-3 6-68, looked up)
chain: B1 chain
B5: soluble PINCH1 LIM1 domain, His tag removed (domain or fragment)
chain: ASATCERCKGGFAPAEKIVNSNGELYHEQCFVCAQCFQQFPEGLFYEFEGRKYCEHDFQMLFA

Legend:
[1] = target: B2; experiment: pull-down
[2] = target: B2; experiment: pull-down; remark: listed apart in the source
[3] = target: B1; experiment: crystal structure
[4] = target: B2; experiment: pull-down; remark: listed apart in the source
[5] = target: T1, ILK ankyrin repeat domain W110A; experiment: pull-down

Binder: B1
IC50 [1]: 2300 nM | IC50 [2]: 4400 nM

Binder: B2
stoichiometry N [3]: 1

Binder: B3
binding result [4]: binds

Binder: B4
binding result [5]: binds

Binder: B5
IC50 [1]: 2900 nM
